Assay results as given in publication PMC6092110, “Binding of Dickkopf-3 to CXCR7 Enhances Vascular Progenitor Cell Migration and Degradable Graft Regeneration” (Circulation Research, 2018).

Target: T1, CXCR7 (HA tagged) overexpressed in HEK 293T cells (UniProt P56485 1-362)
T1 construct: CXCR7 (C-X-C chemokine receptor type 7), HA tagged, overexpressed from an expression plasmid in HEK 293T cells; source: HEK 293T, transfected, in lysate
Assay: ELISA; saturation binding: lysates of HEK 293T cells overexpressing the receptor loaded onto high-affinity-binding ELISA plates coated with anti-HA antibody; serial dilutions of AP-conjugated ligand (or AP alone); AP activity read; Scatchard analysis; n=3
Settings: one partner purified

T1 sequence (P56485 whole entry): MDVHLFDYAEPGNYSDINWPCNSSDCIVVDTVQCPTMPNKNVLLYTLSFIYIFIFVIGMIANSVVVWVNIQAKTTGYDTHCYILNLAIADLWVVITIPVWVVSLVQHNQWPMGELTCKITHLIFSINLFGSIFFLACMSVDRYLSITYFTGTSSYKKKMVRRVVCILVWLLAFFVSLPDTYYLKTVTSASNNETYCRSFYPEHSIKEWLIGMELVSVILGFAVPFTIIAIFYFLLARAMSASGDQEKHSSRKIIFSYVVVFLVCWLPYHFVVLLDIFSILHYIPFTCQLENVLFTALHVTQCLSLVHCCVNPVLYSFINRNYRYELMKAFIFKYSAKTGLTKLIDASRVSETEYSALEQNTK

Kd: 14.1 nM
B1: Dkk3-AP (Dkk3 conjugated with alkaline phosphatase) (ligand)
chain: not shown
